For the data set, the system named is Escherichia coli TOP10. Nature of the data set: shrunken log2 fold change of peptide-encoding DNA abundance (4.5 h post-induction vs induction); higher = less antimicrobial activity (less host growth inhibition). As to conditions: time post-induction: 4.5 h; library: site-saturation at positions 5, 18, 19, 20.
Regarding RRIRFRPPRLPRPRPRPRPCPRP, the “shrunken log2 fold change” value amounted to 0.386.
To RRIRSRPPRLPRPRPRPMWRPRP belongs 0.1; to RRIRTRPPRLPRPRPRPTIIPRP, -0.786.
To RRIRQRPPRLPRPRPRPSDPPRP belongs 0.114; to RRIRRRPPRLPRPRPRPQDHPRP, -0.0159.
As for RRIRVRPPRLPRPRPRPKGQPRP, the “shrunken log2 fold change” value was determined as 0.147.
To RRIRNRPPRLPRPRPRPTGCPRP belongs -0.0633; to RRIRTRPPRLPRPRPRPGWAPRP, 0.622.
To RRIRVRPPRLPRPRPRPNGYPRP belongs -0.199; to RRIRCRPPRLPRPRPRPLPNPRP, -0.0586.
As to RRIRRRPPRLPRPRPRPGNEPRP, the “shrunken log2 fold change” value was -0.301.
To RRIRSRPPRLPRPRPRPFPDPRP belongs -0.319; to RRIRRRPPRLPRPRPRPKQCPRP, 0.0754; to RRIRQRPPRLPRPRPRPGFNPRP, -0.119.
On to RRIRDRPPRLPRPRPRPDKSPRP, for which the “shrunken log2 fold change” value was -0.119.
To RRIRYRPPRLPRPRPRPYLYPRP belongs -0.109.
For RRIRGRPPRLPRPRPRPKLLPRP, the “shrunken log2 fold change” value is 0.84.
Then RRIRWRPPRLPRPRPRPFMNPRP, with -0.11.
Then RRIRTRPPRLPRPRPRPNWEPRP, with 0.00854.
For the sequence RRIRCRPPRLPRPRPRPHSFPRP, the “shrunken log2 fold change” value is -0.404.
Then RRIRTRPPRLPRPRPRPDNNPRP, with -0.48.
Then RRIRRRPPRLPRPRPRPGDRPRP, with 0.265.
Then RRIRMRPPRLPRPRPRPVPEPRP, with 1.21.
For the sequence RRIRVRPPRLPRPRPRPRFMPRP, the “shrunken log2 fold change” value was -0.459.
Consider RRIRIRPPRLPRPRPRPNYCPRP, for which the “shrunken log2 fold change” value was -0.139.
Then RRIRDRPPRLPRPRPRPSLCPRP, with -0.0148; and RRIRTRPPRLPRPRPRPTYHPRP, with -0.291; and RRIRNRPPRLPRPRPRPFSWPRP, with 0.0512.
Consider RRIRERPPRLPRPRPRPSWLPRP, for which the “shrunken log2 fold change” value worked out at 0.177.
RRIRLRPPRLPRPRPRPVRGPRP: the “shrunken log2 fold change” value is 0.682.
Then RRIRGRPPRLPRPRPRPENCPRP, with 0.111.
For the sequence RRIRERPPRLPRPRPRPERLPRP, the “shrunken log2 fold change” value came to 0.171.
Then RRIRKRPPRLPRPRPRPADHPRP, with 0.111.
Regarding RRIRMRPPRLPRPRPRPQGQPRP, the “shrunken log2 fold change” value worked out at 0.253.
Then RRIRHRPPRLPRPRPRPMVGPRP, with -0.0276; and RRIRDRPPRLPRPRPRPYQTPRP, with -0.0929; and RRIRFRPPRLPRPRPRPAHMPRP, with 0.129.
Turning to RRIRPRPPRLPRPRPRPNCRPRP, the “shrunken log2 fold change” value was -0.000174.
Then RRIRWRPPRLPRPRPRPTPTPRP, with 0.22; and RRIRYRPPRLPRPRPRPAMPPRP, with -0.549.
To RRIRVRPPRLPRPRPRPRCMPRP belongs -0.23.
To RRIRDRPPRLPRPRPRPGICPRP belongs -0.0538; to RRIRCRPPRLPRPRPRPNMTPRP, -0.229; to RRIRWRPPRLPRPRPRPFMKPRP, -0.128.
On to RRIRYRPPRLPRPRPRPYNHPRP, for which the “shrunken log2 fold change” value was -1.5.
In the case of RRIRYRPPRLPRPRPRPLPHPRP, the “shrunken log2 fold change” value was -0.375.
Then RRIRFRPPRLPRPRPRPGPQPRP, with 0.447.
In the case of RRIRIRPPRLPRPRPRPRYKPRP, the “shrunken log2 fold change” value is -0.593.
Then RRIRPRPPRLPRPRPRPKTMPRP, with 0.0176; and RRIRMRPPRLPRPRPRPDNFPRP, with -0.184.
Then RRIRWRPPRLPRPRPRPTAQPRP, with 0.894.
RRIRPRPPRLPRPRPRPQNCPRP: the “shrunken log2 fold change” value was -0.621.
Then RRIRRRPPRLPRPRPRPGHYPRP, with -0.0611.
Then RRIRCRPPRLPRPRPRPPRPPRP, with 0.957; and RRIRIRPPRLPRPRPRPHNKPRP, with -0.976.
To RRIRIRPPRLPRPRPRPYKIPRP belongs -0.688; to RRIRWRPPRLPRPRPRPKTGPRP, 0.491; to RRIRSRPPRLPRPRPRPYWKPRP, -0.144.
For RRIRGRPPRLPRPRPRPWWYPRP, the “shrunken log2 fold change” value was -0.119.
Then RRIRDRPPRLPRPRPRPYREPRP, with -0.748; and RRIRPRPPRLPRPRPRPSMFPRP, with -0.437; and RRIRGRPPRLPRPRPRPQWNPRP, with 0.0405.
Then RRIRLRPPRLPRPRPRPSETPRP, with -0.0373; and RRIRARPPRLPRPRPRPATLPRP, with 0.34; and RRIRCRPPRLPRPRPRPQGSPRP, with 0.0401.
Then RRIRPRPPRLPRPRPRPGVQPRP, with 0.336.
As to RRIRGRPPRLPRPRPRPSGSPRP, the “shrunken log2 fold change” value is 0.128.
Then RRIRARPPRLPRPRPRPPQGPRP, with 0.689; and RRIRTRPPRLPRPRPRPRSFPRP, with -0.0927.
To RRIRMRPPRLPRPRPRPPQPPRP belongs 1.37; to RRIRRRPPRLPRPRPRPVITPRP, -0.554.
To RRIRLRPPRLPRPRPRPVNGPRP belongs -0.0366.
For the sequence RRIRIRPPRLPRPRPRPQHPPRP, the “shrunken log2 fold change” value is -0.176.
To RRIRCRPPRLPRPRPRPANFPRP belongs -0.0131.
Then RRIRKRPPRLPRPRPRPGCQPRP, with 0.702.
RRIRDRPPRLPRPRPRPFQKPRP: the “shrunken log2 fold change” value turned out to be 0.158.
With RRIRDRPPRLPRPRPRPLDSPRP, the “shrunken log2 fold change” value amounted to 0.148.
To RRIRGRPPRLPRPRPRPGTIPRP belongs 0.00615; to RRIRVRPPRLPRPRPRPFGCPRP, -0.19.
To RRIRYRPPRLPRPRPRPYHKPRP belongs -0.249; to RRIRDRPPRLPRPRPRPCKMPRP, -0.0957.
To RRIRCRPPRLPRPRPRPTYKPRP belongs -0.267; to RRIRGRPPRLPRPRPRPQFMPRP, 0.0535.
For RRIRYRPPRLPRPRPRPTSDPRP, the “shrunken log2 fold change” value is -0.459.
For RRIRVRPPRLPRPRPRPGALPRP, the “shrunken log2 fold change” value amounted to 0.0362.
As for RRIRKRPPRLPRPRPRPCAYPRP, the “shrunken log2 fold change” value is -0.0475.
To RRIRKRPPRLPRPRPRPLRTPRP belongs 0.727; to RRIRDRPPRLPRPRPRPKGIPRP, 0.0238; to RRIRIRPPRLPRPRPRPHLNPRP, -0.852.
To RRIRMRPPRLPRPRPRPGFEPRP belongs 0.526.
RRIRSRPPRLPRPRPRPPQKPRP: the “shrunken log2 fold change” value stood at 0.463.

For the origin of these results see the supplement of paper PMC9112550, “Optimization of the antimicrobial peptide Bac7 by deep mutational scanning” (BMC Biology, 2022).
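Note: peptides expressed intracellularly from a pBAD plasmid library in pooled LB shake-flask culture, induced with 0.3% L-arabinose, DNA abundance read by NGS, three biological replicates, DESeq2 with apeglm shrinkage.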
